# According to the RNAGym collection of RNA variant scans (doi:10.1101/gr.219683.116):
# B1: mRNA-splicing (parent)
# chain: AGUUGCUGCUGGGAGCUCCAGCACAGUGAAAUGGACAGAAGGGCAGAGCAA
# Variants of: B1
# Assay: exon inclusion enrichment index; higher = more inclusion; WT1 exon 5 minigene, HEK293
row,Variant,exon inclusion enrichment index
1,G34C A35C,0.00408
2,G5A C6U U7A G8U C9A G41U G42A,0.0133
3,G5C C6G U7C U10C C44A A45U,5.86
4,C6A U7A C9A U10A A14G G15U,0.274
5,C6A U7C C9A U10C G41U G42C,3.58
6,G5C C6G U7C U10C U17G,1.86
7,G5U G8U C9U A35U C36A,0.00069
8,U27C,0.36
9,G5C C6G U7C U10C G11C G12C,1.04
10,G5A U7C G8A U10C A35G C36U,0.025
11,C24G A25U,0.0194
12,U3G U4G G5A C6G U7G C9A,0.00966
13,A39U A40U,0.0388
14,G5A U7A C9A,0.664
15,C6A U7C C9A U10C A35C C36U,0.742
16,A40G G41A,0.0243
17,C6A U7C C9A U10C A25U,3.47
18,G26C U27G,0.615
19,U3A G5U G8U C9U,0.513
20,G5A C6G U7G C9A G13A A14U,0.0021
21,U4A G5A C6G U7G C9A,0.0163

row,Variant,exon inclusion enrichment index
1,G5C C6A U7C G8A U10A G34C,0.0202
2,G5A U7C G8A U10C C18U C19U,0.0421
3,G5A C6U U7A G8U C9A G21C C22A,0.109
4,G5C C6G U7C U10C C22G A23C,2.56
5,A30U,0.0645
6,G5A C6U U7A G8U C9A A25C G26A,0.223
7,G5A U7C G8A U10C G41C G42C,3.27
8,G5C C6U G8C C9U U10C U27C,3.63
9,G5C C6G U7C U10C A47C G48A,1.78
10,G34C,0.0362
11,G5A C6U U7A G8U C9A A40U,0.0441
12,G5C C6G U7C C9U U10G,1.02
13,G5A C6U U7A G8U C9A A14C G15A,0.00652
14,G5C C6U G8C C9U U10C C36A A37U,0.939
15,G5C C6A U7C G8A U10A A29U A30G,0.125
16,G5U G8U C9U G41C G42A,0.229
17,G5C C6G U7G G8U U10C,1.74
18,G5A U7C G8A U10C A37C G38A,2.05
19,G5A U7C G8A,1.09
20,G5C C6G U7C U10C G33C G34U,2.86
21,G5U G8U C9U A39U A40C,0.287

row,Variant,exon inclusion enrichment index
1,G8C C9A,0.365
2,A31C U32G,0.373
3,A31C U32A,0.0661
4,G5A U7C G8A U10C A20U G21U,1.69
5,G11U G12C,1.86
6,G5C C6U G8C C9U U10C G33A,0.198
7,G42U G43C,0.112
8,G43U C44G,0.0978
9,C6A U7A C9A U10A U27G G28U,0.003
10,G5C C6A U7C G8A U10A A39C A40G,0.142
11,C6A U7A C9A U10A G43C C44G,3.16
12,G5A C6G U7G C9A G11C G12C,0.00959
13,C6A U7C C9A U10C U27C,5.2
14,C44G,0.391
15,G5C C6A U7C G8A U10A G46A A47G,0.0332
16,G5C C6A U7C G8A U10A G21A C22U,0.0694
17,G5U G8U C9U G28A A29C,0.0709
18,G43A C44U,0.129
19,G5C C6U G8C C9U U10C A47G,0.327
20,G5U G8U C9U C44U,0.0292
21,U4G C6G U7C U10C,0.838

row,Variant,exon inclusion enrichment index
1,C6A U7C C9A U10C G21U,3.09
2,G5C C6A U7C G8A U10A G12C G13A,0.181
3,G5C C6A U7C G8A U10A A25G,0.601
4,G5U G8U C9U G21A,0.0718
5,C6A U7C C9A U10C G11U G12A,1.25
6,G5U G8U C9U C36G A37G,0.0302
7,G5A C6U U7A G8U C9A G43A C44U,0.072
8,G5C C6U G8C C9U U10C G42U G43U,2.81
9,G5A C6U U7A G8U C9A A23U C24U,0.000794
10,G5C C6G U7C U10C A23C C24U,2.07
11,G5A C6U U7A G8U C9A G43U C44U,0.00909
12,G5C C6U G8C C9U U10C G11U G12C,0.558
13,G5C C6U G8C C9U U10C G11U G12A,0.0218
14,C6A U7A C9A U10A G38C A39G,0.734
15,G5C C6U G8C C9U U10C A20C G21A,0.599
16,G5A C6U U7A G8U C9A U10A G11C,0.176
17,G5C C6G U7C U10C A14G G15U,1.21
18,G5C C6U G8C C9U U10C A40U G41C,2.71
19,G5C C6A U7C G8A U10A G21U C22A,0.0315
20,G5C C6G U7C U10C C22A A23G,3.83
21,G5C C6U G8C C9U U10C G21A,1.28
